Assay results taken from PMC9352680, “A comprehensive thermodynamic model for RNA binding by the Saccharomyces cerevisiae Pumilio protein PUF4”.
Positions count from the first letter of the chain named. In names and notes the source's numbering stands.

B1: Ic_S4_P5E.1_K5.1_C5.1_H5.1_A5.1_[T6G]_[A7C]_F5.1_[T8G]_[T9C]_[A10T]_T5.1 (ssRNA)
RNA: UUUGACAACUGAUCGUUCUUUCUUGUAUGCGCUUUCUUUCUCGAUCAGUUGUCUUU
B2: Ic_S4_P5E.1_K5.1_C5.1_H5.1_A5.1_[T5C]_[T6C]_F5.1_[T8G]_[A10G]_T5.1 (ssRNA)
RNA: B1 RNA with U28C, G29C, C30A, C32U, U33G
B3: Ic_S4_P5E.1_K5.1_C5.1_H5.1_A5.1_[T5C]_[T6C]_[A7C]_F5.1_[T8G]_[T9C]_[A10C]_T5.1 (ssRNA)
RNA: B1 RNA with U28C, G29C, U33C
B4: Ic_S4_P5E.1_K5.1_C5.1_H5.1_A5.1_[T5G]_[T6C]_[A7T]_F5.1_[T8A]_[A10T]_T5.1 (ssRNA)
RNA: B1 RNA with U28G, G29C, C30U, G31A, C32U
B5: Ic_S4_P5E.1_K5.1_C5.1_H5.1_A5.1_[T5A]_[A7T]_F5.1_[T9C]_[A10T]_T5.1 (ssRNA)
RNA: B1 RNA with U28A, G29U, C30U, G31U
B6: Ic_S4_P5E.1_K5.1_C5.1_H5.1_A5.1_[T5C]_[T6G]_[A7C]_F5.1_[T8G]_[A10C]_T5.1 (ssRNA)
RNA: B1 RNA with U28C, C32U, U33C
B7: Ic_S4_P5E.1_K5.1_C5.1_H5.1_A5.1_[T6A]_[A7C]_F5.1_[T8C]_[T9C]_[A10T]_T5.1 (ssRNA)
RNA: B1 RNA with G29A, G31C
B8: Ic_S4_P5E.1_K5.1_C5.1_H5.1_A5.1_[T5C]_[A7T]_F5.1_[T8C]_[T9G]_[A10T]_T5.1 (ssRNA)
RNA: B1 RNA with U28C, G29U, C30U, G31C, C32G
B9: Ic_S4_P5E.1_K5.1_C5.1_H5.1_A5.1_[A7T]_F5.1_[T8G]_[T9C]_[A10T]_T5.1 (ssRNA)
RNA: B1 RNA with G29U, C30U
B10: Ic_S4_P5E.1_K5.1_C5.1_H5.1_A5.1_[T6C]_[A7T]_F5.1_[T8A]_[T9G]_[A10C]_T5.1 (ssRNA)
RNA: B1 RNA with G29C, C30U, G31A, C32G, U33C
B11: Ic_S4_P5E.1_K5.1_C5.1_H5.1_A5.1_[T5C]_[T6C]_F5.1_[T8A]_[T9A]_[A10C]_T5.1 (ssRNA)
RNA: B1 RNA with U28C, G29C, C30A, G31A, C32A, U33C
B12: Ic_S4_P5E.1_K5.1_C5.1_H5.1_A5.1_[A7T]_F5.1_[T8G]_[T9C]_[A10C]_T5.1 (ssRNA)
RNA: B1 RNA with G29U, C30U, U33C
B13: Ic_S4_P5E.1_K5.1_C5.1_H5.1_A5.1_[T5A]_[T6C]_[A7C]_F5.1_[T9C]_[A10G]_T5.1 (ssRNA)
RNA: B1 RNA with U28A, G29C, G31U, U33G
B14: Ic_S4_P5E.1_K5.1_C5.1_H5.1_A5.1_[T5A]_[A7T]_F5.1_[T8G]_[T9C]_[A10C]_T5.1 (ssRNA)
RNA: B1 RNA with U28A, G29U, C30U, U33C
B15: Ic_S4_P5E.1_K5.1_C5.1_H5.1_A5.1_[T5C]_F5.1_[T8A]_[T9A]_[A10T]_T5.1 (ssRNA)
RNA: B1 RNA with U28C, G29U, C30A, G31A, C32A
B16: Ic_S4_P5E.1_K5.1_C5.1_H5.1_A5.1_[A7C]_F5.1_[T8C]_[T9C]_T5.1 (ssRNA)
RNA: B1 RNA with G29U, G31C, U33A
B17: Ic_S4_P5E.1_K5.1_C5.1_H5.1_A5.1_[T6A]_[A7C]_F5.1_[T8G]_[T9G]_[A10T]_T5.1 (ssRNA)
RNA: B1 RNA with G29A, C32G
B18: Ic_S4_P5E.1_K5.1_C5.1_H5.1_A5.1_[T5A]_[T6A]_[A7C]_F5.1_[T9A]_T5.1 (ssRNA)
RNA: B1 RNA with U28A, G29A, G31U, C32A, U33A
B19: Ic_S4_P5E.1_K5.1_C5.1_H5.1_A5.1_[T5C]_[T6C]_F5.1_[T8G]_[T9C]_[A10T]_T5.1 (ssRNA)
RNA: B1 RNA with U28C, G29C, C30A
B20: Ic_S4_P5E.1_K5.1_C5.1_H5.1_A5.1_[T6C]_[A7T]_F5.1_[T8A]_[A10C]_T5.1 (ssRNA)
RNA: B1 RNA with G29C, C30U, G31A, C32U, U33C
B21: Ic_S4_P5E.1_K5.1_C5.1_H5.1_A5.1_[A7T]_F5.1_[T8C]_[T9G]_[A10T]_T5.1 (ssRNA)
RNA: B1 RNA with G29U, C30U, G31C, C32G
B22: Ic_S4_P5E.1_K5.1_C5.1_H5.1_A5.1_[T5C]_[T6G]_[A7T]_F5.1_[T8G]_[T9G]_[A10T]_T5.1 (ssRNA)
RNA: B1 RNA with U28C, C30U, C32G
B23: Ic_S4_P5E.1_K5.1_C5.1_H5.1_A5.1_[T5C]_[T6A]_[A7C]_F5.1_[T9C]_[A10C]_T5.1 (ssRNA)
RNA: B1 RNA with U28C, G29A, G31U, U33C
B24: Ic_S4_P5E.1_K5.1_C5.1_H5.1_A5.1_[T5C]_[T6C]_[A7G]_F5.1_[T8G]_[T9C]_[A10C]_T5.1 (ssRNA)
RNA: B1 RNA with U28C, G29C, C30G, U33C

Biological target: T1, PUF4 RNA-binding domain (Saccharomyces cerevisiae, UniProt P25339 537-888)
T1 sequence: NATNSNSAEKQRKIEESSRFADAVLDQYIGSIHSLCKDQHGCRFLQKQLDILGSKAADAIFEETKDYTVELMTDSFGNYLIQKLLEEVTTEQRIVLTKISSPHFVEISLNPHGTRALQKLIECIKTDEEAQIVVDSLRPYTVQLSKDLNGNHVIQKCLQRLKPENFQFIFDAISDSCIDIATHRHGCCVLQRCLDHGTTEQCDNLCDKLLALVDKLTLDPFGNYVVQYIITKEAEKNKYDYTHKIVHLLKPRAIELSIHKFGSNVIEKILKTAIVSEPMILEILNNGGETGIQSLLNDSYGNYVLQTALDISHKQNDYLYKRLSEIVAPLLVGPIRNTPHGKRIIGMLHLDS
Assay: Mg; RNA-MaP; 20 mM Na-HEPES pH 7.4, 30 mM KOAc, 0.75 mM MgCl2, 0.1% Tween-20, 5% glycerol, 0.1 mg/mL BSA, 2 mM DTT; 25 C; 0.0125-409.6 nM protein
Conditions: tags: N-His6-TEV cleaved; C-SNAP kept, Cy3B-labelled; label: tethered on chip by stalled RNA polymerase

Row | Binder | Kd [nM]
1 | B1 | 542
2 | B2 | 124
3 | B3 | 985
4 | B4 | 56.6
5 | B5 | 32.8
6 | B6 | > 2300
7 | B7 | 36.1
8 | B8 | 199
9 | B9 | 80.4
10 | B10 | 47.4
11 | B11 | 158
12 | B12 | 101
13 | B13 | 610
14 | B14 | 400
15 | B15 | 18.5
16 | B16 | 141
17 | B17 | 510
18 | B18 | 4.37
19 | B19 | 650
20 | B20 | 13.6
21 | B21 | 62.1
22 | B22 | 195
23 | B23 | 6.67
24 | B24 | > 2300
25 | UCUCUUUGUAUUUUCUCUCUU (ssRNA) [Ic_S1_P4E.1_K4.1_C4.1_H4.1_A4.1_[A6T]_F4.1_[A9C]_T4.1] | 36
26 | UCUCUUUGUACAUUAUCUCUU (ssRNA) [Ic_S1_P4E.1_K4.1_C4.1_H4.1_A4.1_[T5C]_F4.1_T4.1] | 0.601
27 | UCUCUUUGUAUGUUCUCUCUU (ssRNA) [Ic_S1_P4E.1_K4.1_C4.1_H4.1_A4.1_[A6G]_F4.1_[A9C]_T4.1] | 54.6
28 | UCUCUUUGUAUUUUGUCUCUU (ssRNA) [Ic_S1_P4E.1_K4.1_C4.1_H4.1_A4.1_[A6T]_F4.1_[A9G]_T4.1] | 15.2
29 | UCUCUUUGUAUCUUGUCUCUU (ssRNA) [Ib_S1_P4E.1_K4.1_C4.1_H4.1_A4.1_[A6C]_F4.1_[A9G]_T4.1] | 25.9
